US20210087286A1 (Amgen, published 2021)

Columns and labels:
human GIPR [1] = molecular target: T1, human GIPR (human, UniProt P48546 22-466); assay: cell-based or functional assay
T1 sequence: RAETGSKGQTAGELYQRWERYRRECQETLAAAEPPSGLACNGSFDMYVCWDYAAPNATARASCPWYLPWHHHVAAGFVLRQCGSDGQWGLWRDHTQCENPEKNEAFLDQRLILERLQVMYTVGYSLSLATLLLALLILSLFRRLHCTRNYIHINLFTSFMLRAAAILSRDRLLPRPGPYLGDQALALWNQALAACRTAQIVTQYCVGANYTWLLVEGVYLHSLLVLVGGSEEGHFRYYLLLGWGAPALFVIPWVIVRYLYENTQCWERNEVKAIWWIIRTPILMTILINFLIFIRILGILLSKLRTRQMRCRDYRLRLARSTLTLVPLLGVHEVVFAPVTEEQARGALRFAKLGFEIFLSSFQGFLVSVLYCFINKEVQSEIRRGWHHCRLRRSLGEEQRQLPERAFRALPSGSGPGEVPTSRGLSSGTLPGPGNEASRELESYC

murine GIPR = molecular target: T2, murine GIPR (murine, UniProt Q0P543 19-460, limits assumed); assay: cell-based or functional assay
T2 sequence: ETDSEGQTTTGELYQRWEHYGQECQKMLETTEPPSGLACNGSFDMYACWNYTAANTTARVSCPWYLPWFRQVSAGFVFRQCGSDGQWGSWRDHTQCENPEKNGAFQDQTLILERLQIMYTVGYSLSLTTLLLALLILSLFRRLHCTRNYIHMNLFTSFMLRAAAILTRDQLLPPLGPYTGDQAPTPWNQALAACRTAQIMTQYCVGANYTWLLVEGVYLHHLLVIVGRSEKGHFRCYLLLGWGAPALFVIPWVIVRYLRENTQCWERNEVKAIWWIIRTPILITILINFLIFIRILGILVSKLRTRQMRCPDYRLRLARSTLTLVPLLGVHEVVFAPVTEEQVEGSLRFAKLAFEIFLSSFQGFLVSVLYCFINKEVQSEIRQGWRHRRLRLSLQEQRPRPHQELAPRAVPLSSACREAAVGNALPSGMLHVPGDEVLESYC

human GIPR [2] = molecular target: T1, human GIPR; assay: cell-based or functional assay; remark: listed apart in the source
huGIPR ECD = molecular target: T3, huGIPR ECD (human, UniProt P48546 21-129, limits assumed); assay: SPR (Biacore T200), mAb captured via goat anti-huFc, 200 nM huGIPR ECD analyte
T3 construct: Soluble analyte of the Biacore assay; also called human GIPR extracellular domain
T3 sequence: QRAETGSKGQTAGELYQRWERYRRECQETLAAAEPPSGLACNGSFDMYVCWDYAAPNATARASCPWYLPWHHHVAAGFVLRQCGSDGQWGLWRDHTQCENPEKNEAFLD
Procedure: Immobilization of Goat-anti-huFc antibody to a S-CM5 sensor chip surface was performed according to manufacturer's instructions. The Biacore instrument running buffer is 0.005% P20/PBS 1×, pH7.4, no calcium chloride, no magnesium chloride. Briefly, carboxyl groups on the sensor chip surfaces were activated by injecting 60 μL of a mixture containing 0.2 M N-ethyl-N′-(dimethylaminopropyl) carbodiimide (EDC) and 0.05 M N-hydroxysuccinimide (NHS). Goat-anti-huFc antibody was diluted in 10 mM sodium acetate, pH 4.0 at 20 μg/ml and injected over the activated chip surface at 30 uL/min for 6 minutes. Excess reactive groups on the surfaces were deactivated by injecting 60 μL of 1 M ethanolamine. Final immobilized level was ˜8000 resonance units (RU).
Binding assays were carried out on the immobilized goat anti-huFc antibody surface by Biacore T200. The experiment was performed at 25° C. The instrument running buffer was 0.005% P20/PBS. The goat anti-huFc capture antibody was covalently attached to the sensor chip surface via standard amine coupling to flow cells channel 1-4. The anti-huGIPR antibodies were diluted in sample buffer (0.1 mg/ml BSA, 0.005% P20, PBS) to ˜10 nM then captured to flow cells channel 2, 3, 4. Flow cell channel 1 was as a blank reference surface without injection of anti-huGIPR antibody. The captured antibody response range was ˜250 RU. Then 200 nM huGIPR ECD was injected over the goat anti-huFc antibody captured anti-huGIPR antibody surfaces at flow rate 50 ul/min for 3 minutes. After a 10 minutes dissociation, each surface was regenerated by injecting 10 mM Glycine, pH 1.5 for 30 seconds twice.

B1: iPS:529403 (antibody, human IgG1, kappa, N297G, V domains shown)
VH: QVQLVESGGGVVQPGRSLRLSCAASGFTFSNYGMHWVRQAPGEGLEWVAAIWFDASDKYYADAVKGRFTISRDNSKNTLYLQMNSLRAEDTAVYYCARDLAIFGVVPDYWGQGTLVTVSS
VL: EIVLTQSPATLSLSPGERATLSCRASQSVDLHLAWYQQKPGQAPRLLIYEAATRATGIPDRFSGSGSGTEFTLTISRLEPEDFAVYYCQQYQNWPLTFGGGTKVEIKR
human cAMP IC50 (human GIPR [1]): 0.0339 µM
murine cAMP (murine GIPR): 12 nM

B2: 2G10.348 (antibody, human IgG1, kappa, N297G, V domains shown)
VH: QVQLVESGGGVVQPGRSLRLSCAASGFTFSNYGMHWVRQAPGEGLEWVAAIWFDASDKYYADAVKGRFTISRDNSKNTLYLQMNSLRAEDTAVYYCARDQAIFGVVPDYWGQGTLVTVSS
VL: EIVMTQSPATLSVSPGERATLSCRASQSVSSNLAWYQQKPGQAPRLLIYGAATRATGIPARFSGSGSGTEFTLTISSLQSEDFAVYYCQQYNNWPLTFGGGTKVEIKR
cAMP IC50 (human GIPR [2]): 0.0428 µM
human cAMP IC50 (human GIPR [1]): 0.053 µM
murine cAMP (murine GIPR): 14600 nM
koff (huGIPR ECD): 0.0006 s⁻¹

B3: iPS:529399 (antibody, human IgG1, kappa, N297G, V domains shown)
VH: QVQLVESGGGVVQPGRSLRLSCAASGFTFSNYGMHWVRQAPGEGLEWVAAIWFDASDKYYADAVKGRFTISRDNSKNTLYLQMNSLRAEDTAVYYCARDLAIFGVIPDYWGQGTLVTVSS
VL: EIVLTQSPATLSLSPGERATLSCRASQSVSEHLAWYQQKPGQAPRLLIYEAATRATGIPDRFSGSGSGTEFTLTISRLEPEDFAVYYCQQYQNWPLTFGGGTKVEIKR
human cAMP IC50 (human GIPR [1]): 0.0393 µM
murine cAMP (murine GIPR): 12.9 nM

B4: iPS:529397 (antibody, human IgG1, kappa, N297G, V domains shown)
VH: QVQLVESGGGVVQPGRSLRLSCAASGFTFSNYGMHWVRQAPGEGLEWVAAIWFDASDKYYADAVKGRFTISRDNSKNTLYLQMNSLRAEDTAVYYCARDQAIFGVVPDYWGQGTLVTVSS
VL: EIVLTQSPATLSLSPGERATLSCRASQSVSSNLAWYQQKPGQAPRLLIYGAATRATGIPDRFSGSGSGTEFTLTISRLEPEDFAVYYCQQYNNWPLTFGGGTKVEIKR
human cAMP IC50 (human GIPR [1]): 0.05 µM
murine cAMP (murine GIPR): 108 nM

B5: iPS:529400 (antibody, human IgG1, kappa, N297G, V domains shown)
VH: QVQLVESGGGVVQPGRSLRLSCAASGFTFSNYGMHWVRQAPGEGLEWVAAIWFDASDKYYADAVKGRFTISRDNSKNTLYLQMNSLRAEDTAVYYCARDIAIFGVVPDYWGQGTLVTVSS
VL: EIVLTQSPATLSLSPGERATLSCRASQSVSSNLAWYQQKPGQAPRLLIYGAATRATGIPDRFSGSGSGTEFTLTISRLEPEDFAVYYCQQYNNWPLTFGGGTKVEIKR
human cAMP IC50 (human GIPR [1]): 0.0366 µM
murine cAMP (murine GIPR): 79.5 nM

B6: iPS:529404 (antibody, human IgG1, kappa, N297G, V domains shown)
VH: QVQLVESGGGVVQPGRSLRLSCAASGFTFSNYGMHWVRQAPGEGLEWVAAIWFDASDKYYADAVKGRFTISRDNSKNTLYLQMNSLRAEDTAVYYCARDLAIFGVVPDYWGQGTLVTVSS
VL: EIVLTQSPATLSLSPGERATLSCRASQSVNLNLAWYQQKPGQAPRLLIYQAATRATGIPDRFSGSGSGTEFTLTISRLEPEDFAVYYCQQYNQWPLTFGGGTKVEIKR
human cAMP IC50 (human GIPR [1]): 0.0278 µM
murine cAMP (murine GIPR): 3.9 nM

B7: iPS:529405 (antibody, human IgG1, kappa, N297G, V domains shown)
VH: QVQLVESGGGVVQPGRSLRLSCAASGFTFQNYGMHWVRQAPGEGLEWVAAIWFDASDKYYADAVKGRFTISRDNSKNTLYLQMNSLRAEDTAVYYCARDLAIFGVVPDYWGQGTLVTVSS
VL: EIVLTQSPATLSLSPGERATLSCRASQSVFSHLAWYQQKPGQAPRLLIYEAATRATGIPDRFSGSGSGTEFTLTISRLEPEDFAVYYCQQYQNWPLTFGGGTKVEIKR
human cAMP IC50 (human GIPR [1]): 0.0227 µM
murine cAMP (murine GIPR): 6.1 nM

B8: 2G10.608 (antibody, human IgG1, kappa, N297G, V domains shown)
VH: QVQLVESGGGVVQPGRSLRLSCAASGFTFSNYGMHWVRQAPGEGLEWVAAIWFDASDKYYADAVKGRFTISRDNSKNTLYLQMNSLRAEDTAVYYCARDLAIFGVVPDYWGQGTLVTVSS
VL: EIVMTQSPATLSVSPGERATLSCRASQSVFSHLAWYQQKPGQAPRLLIYEAATRATGIPARVSGSGSGTEFTLTISSLQSEDFAVYYCQQYQQWPLTFGGGTKVEIKR
notes: also called SS-26233
cAMP IC50 (human GIPR [2]): 0.0217 µM
koff (huGIPR ECD): < 5e-05 s⁻¹

B9: 2G10.605 (antibody, human IgG1, kappa, N297G, V domains shown)
VH: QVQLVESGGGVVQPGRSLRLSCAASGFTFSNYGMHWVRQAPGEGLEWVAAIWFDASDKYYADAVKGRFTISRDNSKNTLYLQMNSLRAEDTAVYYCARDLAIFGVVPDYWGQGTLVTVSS
VL: EIVMTQSPATLSVSPGERATLSCRASQSVDVNLAWYQQKPGQAPRLLIYNAATRATGIPARVSGSGSGTEFTLTISSLQSEDFAVYYCQQYQNWPLTFGGGTKVEIKR
notes: also called SS-26230
cAMP IC50 (human GIPR [2]): 0.0256 µM
koff (huGIPR ECD): 7e-05 s⁻¹

B10: 2G10.606 (antibody, human IgG1, kappa, N297G, V domains shown)
VH: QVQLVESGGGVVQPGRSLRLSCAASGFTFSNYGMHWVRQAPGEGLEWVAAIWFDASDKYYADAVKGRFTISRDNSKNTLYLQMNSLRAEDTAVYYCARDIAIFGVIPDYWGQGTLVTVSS
VL: EIVMTQSPATLSVSPGERATLSCRASQSVLTHLAWYQQKPGQAPRLLIYEAATRATGIPARVSGSGSGTEFTLTISSLQSEDFAVYYCQQYQNWPLTFGGGTKVEIKR
notes: also called SS-26231
cAMP IC50 (human GIPR [2]): 0.0204 µM
koff (huGIPR ECD): < 5e-05 s⁻¹

B11: 2G10.609 (antibody, human IgG1, kappa, N297G, V domains shown)
VH: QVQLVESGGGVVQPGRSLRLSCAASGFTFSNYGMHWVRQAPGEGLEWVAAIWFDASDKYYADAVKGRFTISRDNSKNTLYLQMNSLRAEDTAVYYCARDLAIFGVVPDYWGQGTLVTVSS
VL: EIVMTQSPATLSVSPGERATLSCRASQSVERHLAWYQQKPGQAPRLLIYEAATRATGIPARVSGSGSGTEFTLTISSLQSEDFAVYYCQQYQNWPLTFGGGTKVEIKR
notes: also called SS-26234
cAMP IC50 (human GIPR [2]): 0.0269 µM
koff (huGIPR ECD): 6e-05 s⁻¹

B12: 2G10.610 (antibody, human IgG1, kappa, N297G, V domains shown)
VH: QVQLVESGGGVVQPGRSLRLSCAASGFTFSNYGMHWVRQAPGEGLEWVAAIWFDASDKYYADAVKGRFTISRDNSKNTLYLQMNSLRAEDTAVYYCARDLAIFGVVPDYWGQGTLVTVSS
VL: EIVMTQSPATLSVSPGERATLSCRASQSVFTHLAWYQQKPGQAPRLLIYEAATRATGIPARVSGSGSGTEFTLTISSLQSEDFAVYYCQQYNNWPLTFGGGTKVEIKR
notes: also called SS-26235
cAMP IC50 (human GIPR [2]): 0.0129 µM
koff (huGIPR ECD): < 5e-05 s⁻¹

B13: 2G10.607 (antibody, human IgG1, kappa, N297G, V domains shown)
VH: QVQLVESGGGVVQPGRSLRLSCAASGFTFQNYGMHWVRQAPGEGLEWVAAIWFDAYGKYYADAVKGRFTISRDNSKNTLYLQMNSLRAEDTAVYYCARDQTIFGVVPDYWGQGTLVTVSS
VL: EIVMTQSPATLSVSPGERATLSCRASQSVDRHLAWYQQKPGQAPRLLIYEAATRATGIPARVSGSGSGTEFTLTISSLQSEDFAVYYCQQYNQWPLTFGGGTKVEIKR
notes: also called SS-26232
cAMP IC50 (human GIPR [2]): 0.0194 µM
koff (huGIPR ECD): 6e-05 s⁻¹
